± gives the uncertainty stated by the source.

Drawing on the supplement of paper PMC12042874, this text covers amyloid nucleation score for 98 substances.

This data set is described as follows: amyloid nucleation score (Sup35N fusion, yeast selection) (log enrichment); library NNK3; higher = more nucleation; inactive = no reads after selection. Put shortly: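 Peptides of 20 random codons, each fused to Sup35N, were expressed in psi-negative yeast. Cells were induced with 100 μM copper sulfate for 24 hours and grown 7 days at 30°C on medium lacking adenine and uracil, and plasmid inserts before and after selection were Illumina-sequenced. Nucleation scores are DiMSum log enrichments of output over input reads, centred on the mode score of non-aggregating sequences, and sequences under 100 input reads were excluded.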
On to YFVFKALRSIPNGLMLSLRG, for which the amyloid nucleation score entry was “inactive”.
Take YFVLFVRQCVKLVMRFGSED: the amyloid nucleation score entry was “inactive”.
Consider YFYWTCSDKRVTIEDVVPLH, for which the amyloid nucleation score entry was “inactive”.
The result for YGFRRTACMCL reads “inactive”.
In the case of YGLVLGFRRTGYTCDDSLNW, the amyloid nucleation score result is “inactive”.
Consider YGVYISIFILCWNGGNNDDC, for which the amyloid nucleation score result is “inactive”.
The same measure for YHEGLYCGWSYNNCYLTFIG: 0.821 ± 0.25; for YHLFLDVVFFHSTKDESRKN: 0.187 ± 0.6; for YHVMV: “inactive”.
YHYLSNVGMRWGDFTYSWFM: the amyloid nucleation score result is “inactive”.
The result for YIEAMNAGLPGEPARYFVVS reads “inactive”.
The same measure for YIFEPV: 0.318 ± 0.77; for YIFVMLEHVG: “inactive”.
The result for YIGVRGFLLYPFNRVFEVMM reads “inactive”.
For the substance YIIRENLW, the amyloid nucleation score entry is “inactive”.
The result for YIISRFYMAVWGDKPLYTGL reads “inactive”; that for YIMCCGV, 1.61 ± 0.073; that for YINLFLLSGSFVFRVDHHFI, 2.47 ± 0.088.
Substance YISCMCANIRNIFVISIH yielded an amyloid nucleation score of 1.81 ± 0.08.
On to YISSFKFRLSCLRYQIVNSV, for which the amyloid nucleation score result is “inactive”.
YITLRGLWRYCQVMLVYVWK: the amyloid nucleation score result is “inactive”.
Take YIVRDNEAYRKYGSANESGC: the amyloid nucleation score entry was “inactive”.
Take YIVSSSD: the amyloid nucleation score entry was “inactive”.
The same measure for YKCHMSVYRGFINCNVVLMR: “inactive”; for YKCMLYSFG: “inactive”; for YKICSLACVKHGREPV: “inactive”.
The result for YKIYIFFGTVYMGVDRDQIG reads 2.89 ± 0.063; that for YKNSWLKW, “inactive”; that for YKPLFVCSRHLMNRELCTGY, “inactive”.
The result for YKSPFTGNCLYTVVIKDINL reads 1.55 ± 0.085; that for YKYRSLYFSRYIVLYVVGVL, “inactive”; that for YKYVTNDLSRVILRPVSARY, “inactive”.
With YLCIKNRLDKDRSW, the amyloid nucleation score result is “inactive”.
The result for YLCWAFDTMVSGDRGPRSC reads -0.102 ± 0.81; that for YLEVLVGSNQCFNMQG, “inactive”.
Consider YLFEYSEV, for which the amyloid nucleation score result is “inactive”.
The substance YLFVELYYL yielded an amyloid nucleation score of 0.187 ± 0.75.
As to YLIYCL, the amyloid nucleation score entry was “inactive”.
For the substance YLLSL, the amyloid nucleation score result was “inactive”.
As for YLMSYGRWDRWKWWYFYRLW, the amyloid nucleation score result is “inactive”.
The same measure for YLQFIDENS: “inactive”; for YLRDNKAWLASSSKL: “inactive”; for YLRGVFLRYGG: “inactive”.
Regarding YLRWLLFYS, the amyloid nucleation score result is “inactive”.
The result for YLVFNQY reads 1.17 ± 0.086.
The same measure for YLVLKDTRYAYTLLRSMLSA: “inactive”; for YLVSDE: “inactive”; for YLVTIILI: 1.32 ± 0.16.
The result for YMLHGTRRLRRETYGGAGRR reads “inactive”; that for YMRLGRWWSFKAVDGRRLKW, -0.373 ± 1.3.
Take YMSFFIFIPIFLCVNLDRVC: the amyloid nucleation score is 2.38 ± 0.061.
The result for YMSLVRTGKNTQMVVYRLVL reads “inactive”; that for YNFNV, “inactive”; that for YNFWMRQVVMRVTVCGNDEA, “inactive”.
For the substance YNKGFALIRIVRQTERRLHT, the amyloid nucleation score entry is “inactive”.
The same measure for YNKWCLHLCLRNLSMEEGMD: 1.87 ± 0.11.
The result for YNLDDIDSITLYLAVSLCKV reads “inactive”; that for YNLGRNS, “inactive”; that for YNMCLRDRVLFVIIDVRIFW, 0.035 ± 0.35.
The result for YNRFKKLSMA reads “inactive”; that for YNSYK, “inactive”; that for YNYFFPYTNVYNIFSIYKAV, 3.6 ± 0.078.
As to YPGFSAGCDVWQKFNYGVMT, the amyloid nucleation score result was “inactive”.
The same measure for YPLFMDYMLTCVHM: “inactive”; for YPLSPRLLRTTTMHSTQGVG: “inactive”; for YPRKFINLNRHWVVVNVFRM: “inactive”.
As for YPSMLPGTGSIAIMDEFVIM, the amyloid nucleation score entry was “inactive”.
As to YQFDFTF, the amyloid nucleation score entry is “inactive”.
The same measure for YQGKLI: “inactive”; for YQICGCSCLSYLPFLTSSIF: “inactive”; for YQNIDYMKGYKVISKD: “inactive”.
For the substance YQRGVRFRSHWMRSGKWDHF, the amyloid nucleation score entry was “inactive”.
YQSKQRVGSS: the amyloid nucleation score entry is “inactive”.
On to YQVSI, for which the amyloid nucleation score entry was “inactive”.
For YRAECNNFLMPLCCTEFFQI, the amyloid nucleation score was found to be 2.2 ± 0.087.
The substance YRANINRVLVFQLN came in with an amyloid nucleation score of 1.44 ± 0.086.
The result for YRDRIVNHIVGLLGIGS reads 1.16 ± 0.11.
As for YRFLHSEVEVAHFWLWCSSS, the amyloid nucleation score entry is “inactive”.
The result for YRFVRGWFRMRIERPAAPCT reads “inactive”; that for YRFYLVSVVFKTDEVARKSE, “inactive”.
The same measure for YRGIKFTYKPGLLGQFHRED: “inactive”; for YRILINFLSWYLCIYYASCA: “inactive”.
Regarding YRILTGLSLSFRVCIYFVW, the amyloid nucleation score result was “inactive”.
The same measure for YRKLFDFRRVSTLHFTKSN: “inactive”.
In the case of YRLQLPYSVNEAVFLLVGSK, the amyloid nucleation score entry is “inactive”.
The result for YRMTGKLYAVIECSDTVLSG reads “inactive”; that for YRNELCYIQRRYLPYGRWTA, “inactive”; that for YRNSICHNREKAWHGSNKNR, “inactive”.
The same measure for YRPRGERLRFMYCY: “inactive”; for YRVRLCNGSCAQVWCLIRPP: “inactive”.
With YRYCINVTKYHLLQ, the amyloid nucleation score entry was “inactive”.
The same measure for YSDFAWDPRSKNKYGWHPRL: “inactive”; for YSFCVSVATEQLKHLSSLWH: “inactive”.
The same measure for YSFRVTYEGPHAN: 0.873 ± 0.14; for YSGSNITTHNVFNETGDWSG: “inactive”.
The result for YSLCACSYYVNVVNNRVVSV reads 1.39 ± 0.073.
Regarding YSLCLGIAHVRMSTARYYLA, the amyloid nucleation score result is “inactive”.
The result for YSMSILFRYHLNGVRYGMTG reads “inactive”.
